The numbers were not newly measured in PMC10065799, “High-throughput profiling of sequence recognition by tyrosine kinases and SH2 domains using bacterial peptide display” (eLife, 2023), which cites them from elsewhere.

What is called Kd is a measure of binding affinity in units of concentration.

The series has as its target PD1 phosphosite peptide (Homo sapiens) (UniProt Q15116).

Consider SHP2 N-SH2 (from UniProt Q06124), for which the Kd is 2 µM.
